{
  "source": "patent US20090220521A1",
  "about": "(published 2009)",
  "binders": {"B1": {"name": "Bax74 (antibody, V domains shown)", "VH": "EVQLLESGGGLVQPGGSLRLSCAASGFTFSKYYMIWVRQAPGKGLEWVSWIGPSGGFTFYADSVKGRFTISRDNSKNTLYLQMNSLRAEDTAVYYCARGTPDYGGNSLDHWGQGTLVTVSS", "VL": "DIQMTQSPSSLPASVGDRVTITCRASQSIGTYLSWYQHKPGNAPKLLIYATSRLQSGVPSRFSGGGSGTRFTLAISSLQPDDFATYFCQQTYSTPLTFGGGTKVDIK"}, "B2": {"name": "Bax69 (antibody, V domains shown)", "VH": "EVQLLESGGGLVQPGGSLRLSCAASGFTFSIYSMNWVRQAPGKGLEWVSSIGSSGGTTYYADSVKGRFTISRDNSKNTLYLQMNSLRAEDTAVYYCAGSQWLYGMDVWGQGTTVTVSS", "VL": "DIQMTQSPSSLSASVGDRVTITCRSSQRIMTYLNWYQQKPGKAPKLLIFVASHSQSGVPSRFRGSGSETDFTLTISGLQPEDSATYYCQQSFWTPLTFGGGTKVEIK"}, "B3": {"name": "BaxA10 (antibody, V domains shown)", "VH": "EVQLLESGGGLVQPGGSLRLSCAASGFTFSWYAMDWVRQAPGKGLEWVSGIYPSGGRTKYADSVKGRFTISRDNSKNTLYLQMNSLRAEDTAVYYCARVNVIAVAGTGYYYYGMDVWGQGTTVTVSS", "VL": "DIQMTQSPGTLSLSPGERATLSCRASQGVSSSSLAWYQQKPGQAPRLLIYGTSSRATGIPDRFSGSASGTDFTLTISRLQPEDFAVYYCQQYGRSLTFGGGTKVEIK"}, "B4": {"name": "Bax152 (antibody, V domains shown)", "VH": "EVQLLESGGGLVQPGGSLRLSCAASGFTFSIYAMDWVRQAPGKGLEWVSGIVPSGGFTKYADSVKGRFTISRDNSKNTLYLQMNSLRAEDTAVYYCARVNVIAVAGTGYYYYGMDVWGQGTTVTVSS", "VL": "DIQMTQSPVTLSLSPGERATLSCRASQSVRSSYLAWYQQKPGQTPRLLIYGASNRATGIPDRFSGSGSGTDFTLTISRLEPEDFAVYYCQQYGNSLTFGGGTKVEIK"}, "B5": {"name": "anti-MIF antibody Bax94 (antibody, V domains shown)", "VH": "EVQLLESGGGLVQPGGSLRLSCAASGFTFSIYAMDWVRQAPGKGLEWVSGIVPSGGFTKYADSVKGRFTISRDNSKNTLYLQMNSLRAEDTAVYYCARVNVIAVAGTGYYYYGMDVWGQGTTVTVSS", "VL": "DIQMTQSPGTLSLSPGERATLSCRASQGVSSSSLAWYQQKPGQAPRLLIYGTSSRATGIPDRFSGSASGTDFTLTISRLQPEDFAVYYCQQYGRSLTFGGGTKVEIK"}},
  "data": [
    {"target": "recombinant human MIF (macrophage migration inhibitory factor) (human, UniProt P14174 2-115)", "sequence (P14174 2-115)": "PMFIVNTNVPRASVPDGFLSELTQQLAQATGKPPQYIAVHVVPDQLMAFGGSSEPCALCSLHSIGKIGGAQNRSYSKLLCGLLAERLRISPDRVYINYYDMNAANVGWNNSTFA", "assay": "Biacore; Fab fragment", "units": {"Kd": "nM"}, "values": [
      {"binder": "B1", "Kd": 93},
      {"binder": "B2", "Kd": 55},
      {"binder": "B3", "Kd": 0.4},
      {"binder": "B4", "Kd": 16},
      {"binder": "B5", "Kd": 4}
    ]}
  ]
}
